Results taken from article doi:10.1101/2023.05.25.542299, “A Conserved Core Region of the Scaffold NEMO is Essential for Signal-induced Conformational Change and Liquid-liquid Phase Separation” (bioRxiv, 2023).

Key:
[1] = molecular target: FITC-labeled 45-mer peptide derived from the C-terminal region of IKKβ (FITC label (position not given)); assay: fluorescence polarisation; fluorescence anisotropy binding assay with the FITC-labeled IKKβ 45-mer peptide and NEMO proteins; conditions not told (refs 13, 23); conditions: both partners purified
[2] = molecular target: 45-mer peptide of IKKβ (as used in the CD experiments); assay: circular dichroism (spectra and thermal denaturation with and without ligand); 10 µM NEMO protein with or without equimolar IKKβ 45-mer peptide, incubated 1 h at room temperature; 20 mM sodium phosphate, 500 mM NaCl, pH 7.4; spectra at 25 °C, melt 10 to 70 °C at 222 nm; conditions: both partners purified

B1: 7XAla-NEMO (aa 1–419), bacterially expressed (natural protein)
chain: MNRHLWKSQLAEMVQPSGGPAADQDVLGEESPLGKPAMLHLPSEQGAPETLQRALEENQELRDAIRQSNQILRERAEELLHFQASQREEKEFLMAKFQEARKLVERLGLEKLDLKRQKEQALREVEHLKRAQQQMAEDKASVKAQVTSLLGELQESQSRLEAATKEAQALEGRARAASEQARQLESEREALQQQHSVQVDQLRMQGQSVEAALRMERQAASEEKRKLAQLQVAYHQLFQEYDNHIKSSVVGSERKRGMQLEDLKQQLQQAEEALVAKQEVIDKLKEEAEQHKIVMETVPVLKAQADIYKADFQAERQAREKLAEKKELLQEQLEQLQREYSKLKASAQESARIEDMRKRHVEVSQAPLPPAPAYLSSPLALPSQRRSPPEEPPDFCCPKCQYQAPDMDTLQIHVMECIE
- Kd [1]: 13 ± 2.9 nM
- increase in Tm with equimolar peptide [2]: 3 °C
